{"source": "patent US6780984B2", "about": "“Method for prognosing cancer and the proteins involved” (Northwestern University, priority 2000, dated 2004)", "key": {"[1]": {"settings": "Repeat A of the Proline-rich Domain; read-out: Kd, high affinity Ca++ binding; cited from earlier work"}, "[2]": {"tested_on": "xenograft rat Dunning AT3.1 prostate cancer cells", "assay": "Metastasis of AT3.1 xenografts in nude mice", "type": "in vivo", "settings": "restoration of calreticulin expression"}, "prostate cancer cell": {"tested_on": "prostate cancer cell", "assay": "Effect of calreticulin overexpression on other cellular functions", "type": "cell-based"}, "[3]": {"tested_on": "TSU prostate cancer cells", "assay": "Anchorage-independent growth of TSU cells", "type": "cell-based, human", "settings": "overexpression in TSU cells", "text": "Anchorage-independent growth in soft agar correlates with the metastatic potential of cancer cells [Cifone and Fidler, Proc. Nat. Acad. Sci. USA, 77:1039-43 (1980)]."}, "PC3 cells": {"tested_on": "PC3 cells", "assay": "Soft agar assay (anchorage-independent growth)", "type": "cell-based, human", "settings": "stable overexpression in PC3 sublines", "procedure": "FIGS. 4A-4D show the effect of calreticulin overexpression on colony formation of PC3 cells in a soft agar assay, PC3 (FIG. 4A), Mock (FIG. 4B), Crt 35 (FIG. 4C) and Crt 59 (FIG. 4). The soft agar assay was conducted in 6-well plates. The bottom agar is 2 ml 0.6% noble agar containing 1×RPMI 1640 medium supplemented with 10% fetal bovine serum (FBS). After the preparation of bottom agar, 1 ml of 0.3% top agar containing 5,000 cells and 1×RPMI 1640 medium supplemented with 10% FBS was added to form the top layer. The assay for each PC3 subline was carried out in duplicate and was repeated at least 3 times.\nColonies with greater than 125 um in diameter were counted in the quantification. Error bars represent standard error means (SEM).\nSoft agar assay: The soft agar assay was conducted in 6-well plates. The bottom agar is 2 ml 0.6% noble agar containing 1×RPMI 1640 medium supplemented with 10% FBS. After the preparation of bottom agar, 1 ml of 0.3% top agar containing 5,000 cells and 1×RPMI 1640 medium supplemented with 10% FBS was added to form the top layer. The assay for each PC3 subline was carried out in duplicate and was repeated at least 3 times."}}, "data": [{"molecule": "calreticulin: multi-functional Ca++ binding protein of the endoplasmic reticulum, human SEQ ID NO:36; overexpressed from pcDNA3.1/crt (protein) MLLSVPLLLGLLGLAVAEPAVYFKEQFLDGDGWTSRWIESKHKSDFGKFVLSSGKFYGDEEKDKGLQTSQDARFYALSASFEPFSNKGQTLVVQFTVKHEQNIDCGGGYVKLFPNSLDQTDMHGDSEYNIMFGPDICGPGTKKVHVIFNYKGKNVLINKDIRCKDDEFTHLYTLIVRPDNTYEVKIDNSQVESGSLEDDWDFLPPKKIKDPDASKPEDWDERAKIDDPTDSKPEDWDKPEHIPDPDAKKPEDWDEEMDGEWEPPVIQNPEYKGEWKPRQIDNPDYKGTWIHPEIDNPEYSPDPSIYAYDNFGVLGLDLWQVKSGTIFDNFLITNDEAYAEEFGNETWGVTKAAEKQMKDKQDEEQRLKEEEEDKKRKEEEEAEDKEDDEDKDEDEEDEEDKEEDEEEDVPGQAKDEL", "values": [{"measurement": "Kd", "setting": "[1]", "result": 1600, "unit": "nM"}, {"measurement": "metastasis of xenograft", "setting": "[2]", "result": "markedly inhibits the metastasis"}, {"measurement": "Ca++ ionophore-induced apoptosis", "setting": "prostate cancer cell", "result": "inhibits Ca^((+))((+)) ionophore-induced apoptosis"}, {"measurement": "cell attachment", "setting": "prostate cancer cell", "result": "enhances cell attachment"}, {"measurement": "cell proliferation", "setting": "prostate cancer cell", "result": "inhibits prostate cancer cell proliferation"}, {"measurement": "anchorage-independent growth", "setting": "[3]", "result": "markedly inhibited anchorage-independent growth"}, {"measurement": "colony formation in soft agar", "setting": "PC3 cells", "result": "significantly inhibited the size and number of the PC3 colonies"}]}]}
